For the assay, the system named is CHO/hIL6R (CHO cells expressing human IL-6 receptor). In words: ADCC (chrome release) with NK92-CD16(V) as effector cells against CHO/hIL6R cells. The class given is cell-based. As to conditions: in the presence of ATP, various antibody concentrations; variants with increased effector activity. The protocol:
The obtained antibodies 6RAD2C1-4_030 and 6RAD2C1-4_011 were assessed by the method described below to test whether ADCC activity against hIL-6R-expressing cells is mediated via hIL-6R binding of the antibodies in the presence of adenosine triphosphate (ATP). […] At various antibody concentrations in the presence or absence of ATP, 6RAD2C1-4_030, 6RAD2C1-4_011, and MRA were assessed for the ADCC activity to hIL-6R-expressing cells according to the method described in Reference Example 3.
Antibodies that bind to antigens in an ATP-dependent manner were assessed for their ADCC activity against antigen-expressing cells at various antibody concentrations according to the method described below. […]
ADCC activity was assessed based on the specific chrome release rate determined by chrome release assay. […] 100 μl of culture supernatant from each well of the plate was measured for radioactivity using a gamma counter. The specific chrome release rate was determined based on the equation described in Reference Example 1.

These results are taken from patent publication US11673947B2, “Target tissue-specific antigen-binding molecule” (Chugai Seiyaku Kabushiki Kaisha, priority 2012, dated 2023).

B1: 6RAD2C1-4_030: antibody that binds to hIL-6R in the presence of ATP; variable regions SEQ ID NOs: 119 and 120 (antibody, listed as Homo sapiens, V domains shown)
VH: EVQLVESGGDLVKPGGGLRLSCAASGFTFSSYTMNWVRQAPGKGLEWVSSISSRSGYAYYADSVKGRFTISRDNAKNSLYLQMNSLRAEDTAVYYCARFGALNTLNWVFDYWGQGTLVTVSS
VL: QSALTQPPSASGSPGQTVTISCTGTSTDVGDYNYVSWYQQHPGKAPKLMIYQVSKKPSGVPDRFSGSKSGNTASLTVSGLQAEDEADYFCSTRTANAGVLFGGGTKLTVL
As for B1, the “ADCC activity against hIL-6R-expressing cells” value is on record as “antibody concentration-dependent ADCC activity”.

B2: 6RAD2C1-4_011: antibody that binds to hIL-6R in the presence of ATP; variable regions SEQ ID NOs: 82 and 83 (antibody, listed as Homo sapiens, V domains shown)
VH: EVQLVESGGDLVKPGGGLRLSCAASGFTFSGHTMNWVRQAPGKGLEWVSSISSRSSYIYYADSVKGRFTISRDNAKNSLYLQMNSLRAEDTAVYYCARYGALGQMNWVFDYWGQGTLVTVSS
VL: QSALTQPPSASGSPGQTVTISCTGTSTDVGDYNYVSWYQQHPGKAPKLMIYSVSKRPSGVPDRFSGSKSGNTASLTVSGLQAEDEADYFCSSRSSSMNVLFGGGTKLTVL
As to B2, the “ADCC activity against hIL-6R-expressing cells” value is reported as “antibody concentration-dependent ADCC activity”.
